Tests used:
[1] = molecular target: T1, HLA-A*02:01/MAGE-A4^230-239 displayed on cells (MAGE-A4^230-239 pulsed T2 cells; NCI-H1703, A375, THP1, … (human, UniProt P04439 25-365 at identity 0.94); P61769 21-119); experiment: cell-based or functional assay
[2] = molecular target: T1, HLA-A*02:01/MAGE-A4^230-239 displayed …; experiment: cell-based or functional assay; remark: listed apart in the source
[3] = molecular target: T1, HLA-A*02:01/MAGE-A4^230-239 displayed …; experiment: cell-based or functional assay; remark: listed apart in the source
[4] = molecular target: T1, HLA-A*02:01/MAGE-A4^230-239 displayed …; experiment: cell-based or functional assay; remark: listed apart in the source
[5] = molecular target: T2, HLA-A*02:01/MAGE-A4^230-239, soluble recombinant biotinylated pHLA (human, UniProt P04439 25-299 at identity 0.94); P61769 21-119, biotinylated); experiment: ELISA, soluble biotinylated pHLA on neutravidin, scDb, protL-HRP
T2 construct: Empty biotinylated HLA-A2 monomers (Tetramer Shop) loaded with synthetic peptide; also called MAGE-A4 pMHC; MAGE-A4-pHLA
Procedure: ELISA plates were coated with 5 μg/mL NeutrAvidin in PBS and incubated 16 h/4° C. (step (a)) and blocked with 5% skim milk powder in PBST for 1 h/room temperature (RT) (step (c)). […] Bound phage particles were detected with an anti-Fd antibody (anti-M13-HRP (Amersham Biosciences)), whereas bound IgG1 and scDb was detected with HRP conjugated protein L (Genscript) (step (i)). […] Plates were developed with TMB solution and read at 450 nm using a microplate reader (step (k)). Between each layer, the plates were washed 3× with PBST (steps (b), (d), (f), (h), and (j)).

[6] = molecular target: T2, HLA-A*02:01/MAGE-A4^230-239, soluble …; experiment: SPR, biotinylated pHLA on neutravidin chip, scDb without His-tag injected (Assay 6-2)
[7] = molecular target: T2, HLA-A*02:01/MAGE-A4^230-239, soluble …; experiment: SPR, biotinylated pHLA on neutravidin chip, Fab injected (Assay 6-1); Fab format

Binder | EC50 vs. NCI-H1703 (pM), T-cell specific killing [1] [pM] | EC50 vs. A375 (pM), T-cell specific killing [2] [pM] | EC50 vs. C-33-A (pM), T-cell specific killing [3] [pM] | EC50 vs. HuTu80 (pM), T-cell specific killing [3] [pM] | IFNγ EC50 vs. target positive cells (pM) [4] [pM] | EC50 [5] [nM] | Kd [6] [nM] | Kd [7] [nM]
AM2 scDb (bispecific antibody, VLA-VHB-VLB-VHA, anti-CD3 UCHT1) DIRVTQSPSSLSASVGDRVTITCRASQNIMWYLNWYQQKPGKAPKLLIYAASSLQSGVPSRFSGSGSGTDFTLTISSLQPEDFATYYCQQSYSTPYTFGQGTKLEIKGGGGSEVQLQQSGPELVKPGASMKISCKASGYSFTGYTMNWVKQSHGKNLEWMGLINPYKGVSTYNQKFKDKATLTVDKSSSTAYMELLSLTSEDSAVYYCARSGYYGDSDWYFDVWGAGTTVTVSSGGGGSGGGGSGGGGSDIQMTQTTSSLSASLGDRVTISCRASQDIRNYLNWYQQKPDGTVKLLIYYTSRLHSGVPSKFSGSGSGTDYSLTISNLEQEDIATYFCQQGNTLPWTFAGGTKLEIKGGGGSQVQLVQSGAEVKKPGASVKVSCKVSGYTLTELSMHWVRQAPGKGLEWMGGFDPEDGETIYAQKFQGRVTMTEDTSTDTAYMELSSLRSEDTAVYYCATDQGSSWGFYWGQGTLVTVSS | 2.2 | 3.7 | 7.2 | 7.8 | 4.4 | 0.32 |  | 
AM11 scDb (bispecific antibody, as m68; without a His-tag in the SPR assay) DIRVTQSPSSLSASVGDRVTITCRADIDIRWYLNWYQQKPGKAPKLLIYAASSLQSGVPSRFSGSGSGTDFTLTISSLQPEDFATYYCQQSYSTPYTFGQGTKLEIKGGGGSEVQLQQSGPELVKPGASMKISCKASGYSFTGYTMNWVKQSHGKNLEWMGLINPYKGVSTYNQKFKDKATLTVDKSSSTAYMELLSLTSEDSAVYYCARSGYYGDSDWYFDVWGAGTTVTVSSGGGGSGGGGSGGGGSDIQMTQTTSSLSASLGDRVTISCRASQDIRNYLNWYQQKPDGTVKLLIYYTSRLHSGVPSKFSGSGSGTDYSLTISNLEQEDIATYFCQQGNTLPWTFAGGTKLEIKGGGGSQVQLVQSGAEVKKPGASVKVSCKVSGYTLTELSMHWVRQAPGKGLEWMGGFDPYLARTIYAQKFQGRVTMTEDTSTDTAYMELSSLRSEDTAVYYCATDQGSSWGFYWGQGTLVTVSS | 3.1 |  |  |  | 7.2 | 0.17 | 3.2 | 
AM18 scDb (bispecific antibody, as m68) DIRLTQSPSSLSVSVGDRVTITCRASEDIRYYVNWYQQKPGKAPKLLIYAASSLQSGVPSRFSGSGSGTDFTLTISSLQPEDFATYYCQQSYSTPYTFGQGTKLEIKGGGGSEVQLQQSGPELVKPGASMKISCKASGYSFTGYTMNWVKQSHGKNLEWMGLINPYKGVSTYNQKFKDKATLTVDKSSSTAYMELLSLTSEDSAVYYCARSGYYGDSDWYFDVWGAGTTVTVSSGGGGSGGGGSGGGGSDIQMTQTTSSLSASLGDRVTISCRASQDIRNYLNWYQQKPDGTVKLLIYYTSRLHSGVPSKFSGSGSGTDYSLTISNLEQEDIATYFCQQGNTLPWTFAGGTKLEIKGGGGSQVQLVQSGAEVKKPGASVKVSCKVSGYTLTELSMHWVRQAPGKGLEWMGGFDPEDGETIYAQKFQGRVTMTEDTSTDTAYMELSSLRSEDTAVYYCATDQGSSWGFYWGQGTLVTVSS | 4.4 |  |  |  | 9.5 | 0.51 |  | 
AMC9 scDb (bispecific antibody, as m68) DIRVTQSPSSLSASVGDRVTITCRASQNIMWYLNWYQQKPGKAPKLLIYAASSLQSGVPSRFSGSGSGTDFTLTISSLQPEDFATYYCQQSYSTPYTFGQGTKLEIKGGGGSEVQLQQSGPELVKPGASMKISCKASGYSFTGYTMNWVKQSHGKNLEWMGLINPYKGVSTYNQKFKDKATLTVDKSSSTAYMELLSLTSEDSAVYYCARSGYYGDSDWYFDVWGAGTTVTVSSGGGGSGGGGSGGGGSDIQMTQTTSSLSASLGDRVTISCRASQDIRNYLNWYQQKPDGTVKLLIYYTSRLHSGVPSKFSGSGSGTDYSLTISNLEQEDIATYFCQQGNTLPWTFAGGTKLEIKGGGGSQVQLVQSGAEVKKPGASVKVSCKVSGYTLTELSMHWVRQAPGKGLEWMGGFDPEDGETIYAQKFQGRVTMTEDTSTDTAYMELSSLRSEDTAVYYCATDQGASWGFYWGQGTLVTVSS | 1.68 | 2.4 | 1.33 | 6.6 | 7.6 | 0.62 |  | 
AMC11 scDb (bispecific antibody, as m68) DIRVTQSPSSLSASVGDRVTITCRASQNIMWYLNWYQQKPGKAPKLLIYAASSLQSGVPSRFSGSGSGTDFTLTISSLQPEDFATYYCQQAYRIPYTFGQGTKLEIKGGGGSEVQLQQSGPELVKPGASMKISCKASGYSFTGYTMNWVKQSHGKNLEWMGLINPYKGVSTYNQKFKDKATLTVDKSSSTAYMELLSLTSEDSAVYYCARSGYYGDSDWYFDVWGAGTTVTVSSGGGGSGGGGSGGGGSDIQMTQTTSSLSASLGDRVTISCRASQDIRNYLNWYQQKPDGTVKLLIYYTSRLHSGVPSKFSGSGSGTDYSLTISNLEQEDIATYFCQQGNTLPWTFAGGTKLEIKGGGGSQVQLVQSGAEVKKPGASVKVSCKVSGYTLTELSMHWVRQAPGKGLEWMGGFDPEDGETIYAQKFQGRVTMTEDTSTDTAYMELSSLRSEDTAVYYCATDQGSSWGFYWGQGTLVTVSS | 0.72 | 2.3 |  |  | 8.5 | 0.81 |  | 
AM16 scDb (bispecific antibody, as m68) DIQLTQSPSSLSASVGDRVTISCRASQSIMTYLNWYQQRPGKAPKLLIYSASRLQSGVPSRFSGSGYGTEFTLTISSLQPEDFATYYCQQSYSTPFTFGPGTKVDIKGGGGSEVQLQQSGPELVKPGASMKISCKASGYSFTGYTMNWVKQSHGKNLEWMGLINPYKGVSTYNQKFKDKATLTVDKSSSTAYMELLSLTSEDSAVYYCARSGYYGDSDWYFDVWGAGTTVTVSSGGGGSGGGGSGGGGSDIQMTQTTSSLSASLGDRVTISCRASQDIRNYLNWYQQKPDGTVKLLIYYTSRLHSGVPSKFSGSGSGTDYSLTISNLEQEDIATYFCQQGNTLPWTFAGGTKLEIKGGGGSQVQLVQSGAEVKKPGASVKVSCKVSGYTLTELSMHWVRQAPGKGLEWMGGFDPEDGETIYAQKFQGRVTMTEDTSTDTAYMELSSLRSEDTAVYYCATDQGSSWGFYWGQGTLVTVSS | 5.3 |  |  |  | 12.3 | 1.85 |  | 
AMC8 scDb (bispecific antibody, as m68) DIRLTQSPSSLSASVGDRVTMTCRASQTVATYVNWYQQKPGRAPKLLMYVTSIRQSEVPSRFSGDGFGTDFTLTINPLQPDDFATYYCQQAYSTPVTFGQGTKLEIKGGGGSEVQLQQSGPELVKPGASMKISCKASGYSFTGYTMNWVKQSHGKNLEWMGLINPYKGVSTYNQKFKDKATLTVDKSSSTAYMELLSLTSEDSAVYYCARSGYYGDSDWYFDVWGAGTTVTVSSGGGGSGGGGSGGGGSDIQMTQTTSSLSASLGDRVTISCRASQDIRNYLNWYQQKPDGTVKLLIYYTSRLHSGVPSKFSGSGSGTDYSLTISNLEQEDIATYFCQQGNTLPWTFAGGTKLEIKGGGGSQVQLVQSGAEVKKPGASVKVSCKVSGYTLTELSMHWVRQAPGKGLEWMGGFDPEDGETIYAQKFQGRVTMTEDTSTDTAYMELSSLRSEDTAVYYCATDQGASWGFYWGQGTLVTVSS | 2.51 | 1.6 |  |  | 7.7 | 0.88 |  | 
AM2 Fab (Fab, V domains shown) VH: QVQLVQSGAEVKKPGASVKVSCKVSGYTLTELSMHWVRQAPGKGLEWMGGFDPEDGETIYAQKFQGRVTMTEDTSTDTAYMELSSLRSEDTAVYYCATDQGSSWGFYWGQGTLVTVSS VL: DIRVTQSPSSLSASVGDRVTITCRASQNIMWYLNWYQQKPGKAPKLLIYAASSLQSGVPSRFSGSGSGTDFTLTISSLQPEDFATYYCQQSYSTPYTFGQGTKLEIKR |  |  |  |  |  |  |  | 86.3
AM15 Fab (Fab, V domains shown) VH: QVQLVQSGAEVKKPGASVKVSCKVSGYTLTELSMHWVRQAPGKGLEWMGGFDPEDGETIYAQKFQGRVTMTEDTSTDTAYMELSSLRSEDTAVYYCATDQGSSWGFYWGQGTLVTVSS VL: not shown |  |  |  |  |  |  |  | 148
AMC9 Fab (Fab, V domains shown) VH: QVQLVQSGAEVKKPGASVKVSCKVSGYTLTELSMHWVRQAPGKGLEWMGGFDPEDGETIYAQKFQGRVTMTEDTSTDTAYMELSSLRSEDTAVYYCATDQGASWGFYWGQGTLVTVSS VL: DIRVTQSPSSLSASVGDRVTITCRASQNIMWYLNWYQQKPGKAPKLLIYAASSLQSGVPSRFSGSGSGTDFTLTISSLQPEDFATYYCQQSYSTPYTFGQGTKLEIKR |  |  |  |  |  |  |  | 15.8
AM10 Fab (Fab, V domains shown, Fab format) VH: QVQLVQSGAEVKKPGASVKVSCKVSGYTLTELSMHWVRQAPGKGLEWMGGFDPEDGETIYAQKFQGRVTMTEDTSTDTAYMELSSLRSEDTAVYYCATDQGASWGFYWGQGTLVTVSS VL: not shown |  |  |  |  |  |  |  | 325
